{
  "source": "patent US8097443B2",
  "about": "“Nucleotidyltransferases with enhanced nucleotide triphosphate flexibility” (priority 2007, dated 2012)",
  "test_in_all_cases": "purified protein, by the assay type",
  "conditions_in_all_cases": "other: Wild-type RmlA, 10 mM glucose-1-phosphate, 0.05-25 μM enzyme, [NTP] + 5 mM MgCl2, 100 mM Tris-HCl pH 8.0, 37° C.",
  "key": {"[1]": {"tested_on": "Nc1ccn([C@@H]2O[C@H](COP(=O)(O)OP(=O)(O)OP(=O)(O)O)[C@@H](O)[C@H]2O)c(=O)n1", "method": "(§1) In a typical reaction, sugar-1-phosphate (10 mM final) and enzyme (0.01-50 μM) were mixed with NTP (0.01-40 mM) in the presence of MgCl2 ([NTP]+5 mM) and 10 U/mL inorganic pyrophosphatase (Sigma, St. Louis, Mo., USA) in 100 mM Tris HCl, pH 8.0 (20 μL final volume). Typical reactions were analyzed after 10 min at 37° C. and reaction times were extended for some slow reacting sugar/NTP combinations. Reactions were stopped by the addition of 80 μL prewarmed HPLC buffer and heat inactivation (95° C., 5 min). The amount of enzyme used and the incubation time was adjusted so that the reactions never proceeded to more than 10% turnover for kinetics, or 30% for activity assays.\n(§2) Kinetic Measurements—Pseudo first order kinetics were obtained by fixing glucose-1-phosphate at a saturating concentration of 10 mM (Barton et al. (2001) Nat Struct Biol 8, 545-551), and titrating NTPs. At least eight different concentrations in the range of ¼×KM to 4×KM (0.09-20 mM for dTTP, 0.2-40 mM for others) were assayed in triplicate. Reaction rates were confirmed to be linear over twice the incubation time. Activities were corrected for time and enzyme concentrations, and the kinetic curves were fit to the Michaelis-Menton equation using SigmaPlot with the Enzyme Kinetics module (SPSS, Chicago, Ill., USA)."}, "[2]": {"tested_on": "Nc1nc2c(ncn2[C@@H]2O[C@H](COP(=O)(O)OP(=O)(O)OP(=O)(O)O)[C@@H](O)[C@H]2O)c(=O)[nH]1", "method": "as §1, §2"}, "[3]": {"tested_on": "Nc1ccn([C@H]2C[C@H](O)[C@@H](COP(=O)(O)OP(=O)(O)OP(=O)(O)O)O2)c(=O)n1", "method": "as §1, §2"}, "[4]": {"tested_on": "Nc1ncnc2c1ncn2[C@H]1C[C@H](O)[C@@H](COP(=O)(O)OP(=O)(O)OP(=O)(O)O)O1", "method": "as §1, §2"}, "[5]": {"tested_on": "Nc1nc2c(ncn2[C@H]2C[C@H](O)[C@@H](COP(=O)(O)OP(=O)(O)OP(=O)(O)O)O2)c(=O)[nH]1", "method": "as §1, §2"}, "[6]": {"tested_on": "O=c1ccn([C@@H]2O[C@H](COP(=O)(O)OP(=O)(O)OP(=O)(O)O)[C@@H](O)[C@H]2O)c(=O)[nH]1", "method": "as §1, §2"}},
  "data": [
    {"substance": "wt RmlA (glucose-1-phosphate thymidylyltransferase) (Salmonella enterica subsp. enterica serovar Typhimurium str. LT2)", "values": [
      {"measurement": "Km", "setting": "[1]", "value": "13.7 ± 1.1", "unit": "mM"},
      {"measurement": "kcat", "setting": "[1]", "value": "0.0983 ± 0.0033", "unit": "s⁻¹"},
      {"measurement": "Km", "setting": "[2]", "value": "8.5 ± 0.6", "unit": "mM"},
      {"measurement": "kcat", "setting": "[2]", "value": "0.14 ± 0.0033", "unit": "s⁻¹"},
      {"measurement": "Km", "setting": "[3]", "value": "10.5 ± 1.1", "unit": "mM"},
      {"measurement": "kcat", "setting": "[3]", "value": "1.22 ± 0.05", "unit": "s⁻¹"},
      {"measurement": "Km", "setting": "[4]", "value": "7.8 ± 0.9", "unit": "mM"},
      {"measurement": "kcat", "setting": "[4]", "value": "1.88 ± 0.083", "unit": "s⁻¹"},
      {"measurement": "Km", "setting": "[5]", "value": "3.7 ± 0.5", "unit": "mM"},
      {"measurement": "kcat", "setting": "[5]", "value": "2.12 ± 0.083", "unit": "s⁻¹"},
      {"measurement": "Km", "setting": "[6]", "value": "4.6 ± 0.7", "unit": "mM"},
      {"measurement": "kcat", "setting": "[6]", "value": "41 ± 2.17", "unit": "s⁻¹"}
    ]}
  ]
}
